As a reminder, the EC50 is the midpoint of the concentration-response curve. A higher EC50 goes with lower potency in that assay.

Consider one molecule from patent US20150037340A1 (PEIRRE FABRE MEDICAMENT, published 2015).

Experiment [1] has as its target T1, human protein Axl (cellular form on the cell surface) (human, UniProt P30530 26-894).
T1 construct: also called Axl receptor; membrane Axl receptor
T1 sequence: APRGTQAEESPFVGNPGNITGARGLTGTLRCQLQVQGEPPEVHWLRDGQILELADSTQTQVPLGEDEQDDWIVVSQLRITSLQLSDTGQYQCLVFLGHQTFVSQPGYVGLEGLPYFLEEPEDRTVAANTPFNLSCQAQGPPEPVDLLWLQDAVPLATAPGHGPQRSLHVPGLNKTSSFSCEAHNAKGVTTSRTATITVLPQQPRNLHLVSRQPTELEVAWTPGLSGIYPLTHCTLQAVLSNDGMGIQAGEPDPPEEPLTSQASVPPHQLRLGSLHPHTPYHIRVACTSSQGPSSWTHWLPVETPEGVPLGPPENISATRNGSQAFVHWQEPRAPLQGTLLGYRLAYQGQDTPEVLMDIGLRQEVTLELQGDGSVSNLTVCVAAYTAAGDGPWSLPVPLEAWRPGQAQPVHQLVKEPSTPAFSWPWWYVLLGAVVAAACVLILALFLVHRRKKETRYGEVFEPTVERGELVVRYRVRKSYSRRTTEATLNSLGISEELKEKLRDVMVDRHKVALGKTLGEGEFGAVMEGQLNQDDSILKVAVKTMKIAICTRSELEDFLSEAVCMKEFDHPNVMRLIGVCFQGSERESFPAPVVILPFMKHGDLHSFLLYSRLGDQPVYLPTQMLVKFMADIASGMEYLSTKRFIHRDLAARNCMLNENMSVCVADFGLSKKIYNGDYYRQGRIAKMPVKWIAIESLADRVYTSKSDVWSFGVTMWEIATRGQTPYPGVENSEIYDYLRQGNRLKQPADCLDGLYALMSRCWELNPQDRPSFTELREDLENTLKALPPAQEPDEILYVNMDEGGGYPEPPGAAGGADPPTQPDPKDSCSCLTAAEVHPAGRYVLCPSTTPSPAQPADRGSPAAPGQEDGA
The experiment is described as follows: flow cytometry on SN12C cells, anti-mouse IgG Alexa488; table under the graph, unit from the axis Log [M]. As for the experimental part: Cells were detached using trypsin and cell concentration was adjusted at 1×10⁶ cells/ml in FACS buffer. A volume of 100 μL of cell suspension was incubated with increasing concentrations of either isotype controls or anti-Axl antibodies for 20 min. at 4° C. Cells were then washed three times with FACS buffer and incubated for 20 min. more using either anti-mouse IgG Alexa488 secondary antibody or anti-human IgG Alexa488 secondary antibody at 4° C. in the dark. Cells were washed three times with FACS buffer and resuspended with 100 μl of FACS buffer before adding propidium iodide.

Experiment [2] has as its target T2, recombinant human Mer-Fc (R and D Systems, cat No 891-MR) (human, UniProt Q12866 26-499, limits assumed).
T2 construct: Bought protein; also called rhMer-Fc; rhMer; not shown: Fc portion
T2 sequence (looked up): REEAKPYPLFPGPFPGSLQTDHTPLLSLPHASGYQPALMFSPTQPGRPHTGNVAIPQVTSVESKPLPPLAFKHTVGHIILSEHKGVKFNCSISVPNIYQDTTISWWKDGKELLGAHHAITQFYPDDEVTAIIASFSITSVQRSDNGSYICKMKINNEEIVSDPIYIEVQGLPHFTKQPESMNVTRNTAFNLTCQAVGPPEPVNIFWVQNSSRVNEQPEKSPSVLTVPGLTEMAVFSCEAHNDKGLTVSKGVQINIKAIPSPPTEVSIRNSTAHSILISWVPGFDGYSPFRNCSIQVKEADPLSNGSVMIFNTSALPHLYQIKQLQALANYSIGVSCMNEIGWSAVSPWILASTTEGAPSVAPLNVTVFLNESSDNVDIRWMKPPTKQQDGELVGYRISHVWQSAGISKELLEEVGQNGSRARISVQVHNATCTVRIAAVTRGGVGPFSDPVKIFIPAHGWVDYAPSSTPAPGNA
The experiment is described as follows: ELISA on coated rhMer-Fc, detection with goat anti-mouse IgG-HRP. As for the experimental part:
(§1) Then ½ serial dilutions were done over 12 columns. Plates were washed and a goat anti-mouse (Jackson) specific IgG-HRP was added for 1 h at 37° C. Reaction development was performed using the TMB substrate solution. […] Coating controls were performed in presence of a goat anti-human IgG Fc polyclonal serum labelled with HRP (Jackson, ref 109-035-098) and/or in presence of a HRP-coupled anti-Histidine antibody (R and D Systems, ref: MAB050H). Results are represented in FIGS. 2A, 2B and 2C, respectively.
A general note: In an ELISA, binding on a coated surface is turned into a signal by an enzyme label.

Experiment [3] concerns the target T3, recombinant human Dtk-Fc (R and D Systems, cat No 859-DK) (human, UniProt Q06418 41-428).
T3 construct: Bought protein; also called rhDtk-Fc; rhDtk; not shown: Fc portion
T3 sequence (looked up): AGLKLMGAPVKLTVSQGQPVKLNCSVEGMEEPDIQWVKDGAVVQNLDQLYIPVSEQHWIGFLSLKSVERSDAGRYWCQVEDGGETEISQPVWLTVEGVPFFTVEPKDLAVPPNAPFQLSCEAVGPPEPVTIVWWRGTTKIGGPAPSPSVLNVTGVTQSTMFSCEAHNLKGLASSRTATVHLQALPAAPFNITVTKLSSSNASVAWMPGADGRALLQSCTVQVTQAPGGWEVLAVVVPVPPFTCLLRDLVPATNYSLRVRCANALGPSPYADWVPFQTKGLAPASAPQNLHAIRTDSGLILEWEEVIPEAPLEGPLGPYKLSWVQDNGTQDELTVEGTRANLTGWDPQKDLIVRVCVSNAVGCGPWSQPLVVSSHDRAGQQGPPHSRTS
The experiment is described as follows: ELISA on coated rhDtk-Fc, detection with goat anti-mouse IgG-HRP. On the procedure:
as §1

B1: 1613F12 antibody (murine form) (antibody, V domains shown)
VH: EVHLQQSGAELVKPGASVKLSCTASGFNIRDTYIHWVKQRPEQGLEWIGRLDPANGHTKYGPNFQGRATMTSDTSSNTAYLQLSSLTSEDTAVYYCARGAYYYGSSGLFYFDYWGQGTTLSVSS
VL: DVQITQSPSYLATSPGETITINCRASKSISKYLAWYQEKPGKTNKLLIYSGSTLQSGVPSRFSGSGSGTDFTLTISSLEPEDFAMYFCQQHHEYPLTFGAGTELELK
notes: Whole murine monoclonal antibody purified from a hybridoma; a murine IgG1 (9G4) serves as its isotype control; also called m1613F12; monoclonal antibody 1613F12 derived from the hybridoma I-4505
In turn, B1 returned an EC50 in experiment [1] of 2.16 nM. Besides, the binding result in experiment [2] and in experiment [3] was “no binding (tested: log -7.5 M)” throughout.
